Measurements published in publication doi:10.1101/2020.05.09.085852 (bioRxiv, 2020).

Biological target: the molecule itself
Experiment: crystal structure

B1: YukC413.strep (domain or fragment, B. subtilis 168, UniProt P71070 1-413, looked up)
chain: MSGEQKSYLENQLEAVAEKTDAGYTFTFQREKIKLLDGLEANVIKDINPFFHKEIDVTDDEVIITIQPPSSYKAFRFMKAKDKKSKWQFAYQLVQAVQQHNLSRLNLIVAPENIVFDKGLTPYFLHYGVKESIPPYERDEERVWQELKAAAALAVDGAFAFEDYLKFNETLTFSAEAKAILDAESYDDLLELIQTHIDELEAKAKTYIHIPRKKWNIQRYIGLGLIVLLVPALIYSMYALFFAQPKHQAIVDSNRAFLNKQYSEVISTLSKYDAESLPESVQYQLATSYVEVENLGSAKTKNIENNLVTLQSDPQHFLYWIDYGRGEYKEAISIGRKLEYNDYIYFALAKYKQQLLSEDTNDEDIQKELDSVNSELEKAQKERQENKQSNSETSLVDTSEEQTQTDEEKQAEE
- stoichiometry N: 2
